US20170158761A1 (EWHA UNIVERSITY INDUSTRY COLLABORATION FOUNDATION, published 2017)
Where no end group is shown, it is not given here.

Target: T1, Δ-dTCTP (FL deleted dimer TCTP) (Pan troglodytes (Chimpanzee), UniProt A5A6K2 1-172, disulfide bridge between the C-terminal cysteines (Cys172) of the two chains)
T1 construct: also called A-dTCTP; dimer form of FL domain-deleted TCTP
T1 sequence: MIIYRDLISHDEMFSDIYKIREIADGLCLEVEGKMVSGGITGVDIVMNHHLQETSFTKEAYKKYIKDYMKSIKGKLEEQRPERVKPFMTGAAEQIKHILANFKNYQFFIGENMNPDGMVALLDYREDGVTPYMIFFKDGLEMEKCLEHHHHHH
Assay: ELISA: biotinylated dTBP2 (0.01 to 10 µM) on streptavidin plate, TCTP protein at 0.2 µg/ml, anti-HRF rabbit antibody detection
Experimental: To investigate the affinity to dTBP2 of f-TCTP, Δ-dTCTP, and Del-N11dTCTP of the present invention, biotin was conjugated to the COOH-terminus of dTBP2 known to bind to HRF, followed by purification. The purified protein was immobilized in the plastic well coated with streptavidin, to which f-TCTP, Δ-dTCTP, and Del-N11dTCTP were added. Then, the binding strength of each protein was investigated.
Particularly, 50 μL of the biotinylated dTBTP2 dissolved in a buffer (TBS [25 mM Tris, 150 mM NaCl, pH 7.2], 0.1% BSA, 0.05% Tween-20) at different concentrations of […] was added to Reacti-Bind Streptavidin Coated Polystyrene Plates (PIERCE), followed by reaction at room temperature for 2 hours. The plate was washed with a washing buffer three times. Each of f-TCTP, Δ-dTCTP, and Del-N11dTCTP was dissolved in TBS at the concentration of 0.2 μg/ml. 60 μl of the mixture was added to each well of the plate, followed by reaction for 1 hour. The plate was washed with a washing buffer three times. 100 μl of anti-HRF rabbit antibody (Bio-Rad) diluted in a buffer (1:2000) was added to each well of the plate, which stood at room temperature for 30 minutes. […] Color development was measured at 450 nm and 570 nm using an ELISA reader (Bio-Rad), and affinity was determined by the difference.

Binder: WYVYPSM-biotin (also called biotinylated dTBTP2) [biotinylated dTBP2 (dTCTP binding peptide 2)]
- binding result: binds
